US20260055162A1
Values belong to the substance of their own block, whether it stands above or below them.

Legend:
Test in all cases: cell-based or functional assay
[1] = target: AA-SR-105 (SR-105), Fas ECD-Fas TM-CD3z ICD
[2] = target: AA-SR-120 (SR-120), Fas ECD-CD28 TM-CD3z ICD
[3] = target: AA-SR-100 (SR-100), BTLA ECD-BTLA TM-CD3z ICD
[4] = target: AA-SR-115 (SR-115), BTLA ECD-CD28 TM-CD3z ICD
[5] = target: AA-SR-112 (SR-112), TACTILE ECD-TACTILE TM-CD3z ICD
[6] = target: AA-SR-127 (SR-127), TACTILE ECD-CD28 TM-CD3z ICD
Sequence of AA-SR-127 (SR-127), TACTILE ECD-CD28 TM-CD3z ICD (chain, as listed by the source limits assumed, form in doubt): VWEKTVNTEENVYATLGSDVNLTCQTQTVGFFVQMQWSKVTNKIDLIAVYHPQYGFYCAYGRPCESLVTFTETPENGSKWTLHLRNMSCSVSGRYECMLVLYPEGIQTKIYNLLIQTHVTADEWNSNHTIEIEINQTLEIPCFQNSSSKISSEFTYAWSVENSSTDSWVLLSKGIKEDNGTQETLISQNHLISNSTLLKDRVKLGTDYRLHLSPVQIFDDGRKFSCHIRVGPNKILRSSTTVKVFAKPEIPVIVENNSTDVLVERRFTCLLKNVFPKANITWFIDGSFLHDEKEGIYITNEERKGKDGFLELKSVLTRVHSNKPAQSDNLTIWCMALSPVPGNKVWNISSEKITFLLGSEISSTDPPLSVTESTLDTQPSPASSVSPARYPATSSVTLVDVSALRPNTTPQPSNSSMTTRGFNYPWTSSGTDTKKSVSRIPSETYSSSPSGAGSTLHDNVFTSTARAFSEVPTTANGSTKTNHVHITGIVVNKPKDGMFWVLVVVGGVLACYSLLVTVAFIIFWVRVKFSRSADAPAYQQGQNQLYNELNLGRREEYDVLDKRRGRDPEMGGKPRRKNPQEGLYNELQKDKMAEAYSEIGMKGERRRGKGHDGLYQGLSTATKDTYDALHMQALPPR

[7] = target: AA-SR-117 (SR-117), CD200R ECD-CD28 TM-CD3z ICD
Sequence of AA-SR-117 (SR-117), CD200R ECD-CD28 TM-CD3z ICD (chain, as listed by the source limits assumed, form in doubt): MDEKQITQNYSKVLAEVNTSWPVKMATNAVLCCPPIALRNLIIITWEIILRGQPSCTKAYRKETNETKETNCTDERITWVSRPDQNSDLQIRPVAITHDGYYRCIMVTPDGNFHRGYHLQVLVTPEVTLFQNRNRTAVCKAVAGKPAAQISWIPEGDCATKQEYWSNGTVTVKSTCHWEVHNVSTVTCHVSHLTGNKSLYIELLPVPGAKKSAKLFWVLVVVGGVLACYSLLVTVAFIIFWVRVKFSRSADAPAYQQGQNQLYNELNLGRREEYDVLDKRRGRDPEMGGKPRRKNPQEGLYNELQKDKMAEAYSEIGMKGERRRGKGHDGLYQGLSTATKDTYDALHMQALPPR

[8] = target: AA-SR-102 (SR-102), CD200R ECD-CD200R TM-CD3z ICD
Sequence of AA-SR-102 (SR-102), CD200R ECD-CD200R TM-CD3z ICD (chain, as listed by the source limits assumed, form in doubt): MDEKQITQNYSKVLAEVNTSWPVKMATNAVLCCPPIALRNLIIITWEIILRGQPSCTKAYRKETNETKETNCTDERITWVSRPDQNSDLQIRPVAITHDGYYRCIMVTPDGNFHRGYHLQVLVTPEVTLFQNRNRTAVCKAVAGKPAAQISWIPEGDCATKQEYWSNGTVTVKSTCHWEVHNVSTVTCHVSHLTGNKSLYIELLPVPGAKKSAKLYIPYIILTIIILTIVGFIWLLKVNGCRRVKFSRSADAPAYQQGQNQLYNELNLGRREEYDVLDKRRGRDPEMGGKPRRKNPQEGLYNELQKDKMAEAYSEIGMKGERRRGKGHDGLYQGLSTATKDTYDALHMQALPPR

[9] = target: AA-SR-104 (SR-104), CTLA4 ECD-CTLA4 TM-CD3z ICD
Sequence of AA-SR-104 (SR-104), CTLA4 ECD-CTLA4 TM-CD3z ICD (chain, as listed by the source limits assumed, form in doubt): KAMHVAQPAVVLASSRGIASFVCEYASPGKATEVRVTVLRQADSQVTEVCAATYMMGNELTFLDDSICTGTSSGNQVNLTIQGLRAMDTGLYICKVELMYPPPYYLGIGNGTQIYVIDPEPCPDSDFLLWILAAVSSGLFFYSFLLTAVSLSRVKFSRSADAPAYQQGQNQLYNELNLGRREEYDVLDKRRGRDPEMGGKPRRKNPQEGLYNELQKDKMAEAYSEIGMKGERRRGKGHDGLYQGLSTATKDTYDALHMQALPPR

[10] = target: AA-SR-119 (SR-119), CTLA4 ECD-CD28 TM-CD3z ICD
Sequence of AA-SR-119 (SR-119), CTLA4 ECD-CD28 TM-CD3z ICD (chain, as listed by the source limits assumed, form in doubt): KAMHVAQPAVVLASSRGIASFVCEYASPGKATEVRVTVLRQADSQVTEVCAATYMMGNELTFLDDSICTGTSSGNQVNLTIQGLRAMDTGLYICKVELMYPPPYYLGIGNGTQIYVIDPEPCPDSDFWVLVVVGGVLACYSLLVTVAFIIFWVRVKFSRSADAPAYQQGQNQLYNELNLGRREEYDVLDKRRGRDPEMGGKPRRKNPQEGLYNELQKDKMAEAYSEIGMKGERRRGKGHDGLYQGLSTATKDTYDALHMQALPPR

Sequence of AA-SR-100 (SR-100), BTLA ECD-BTLA TM-CD3z ICD (chain, as listed by the source limits assumed, form in doubt): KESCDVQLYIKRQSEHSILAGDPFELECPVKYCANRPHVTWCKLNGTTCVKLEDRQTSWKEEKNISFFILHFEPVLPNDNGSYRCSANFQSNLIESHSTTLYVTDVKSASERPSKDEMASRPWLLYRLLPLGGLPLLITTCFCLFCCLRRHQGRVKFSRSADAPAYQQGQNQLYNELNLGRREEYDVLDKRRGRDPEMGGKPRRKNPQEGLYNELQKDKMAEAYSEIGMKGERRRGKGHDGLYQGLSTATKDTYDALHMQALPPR
Sequence of AA-SR-112 (SR-112), TACTILE ECD-TACTILE TM-CD3z ICD (chain, as listed by the source limits assumed, form in doubt): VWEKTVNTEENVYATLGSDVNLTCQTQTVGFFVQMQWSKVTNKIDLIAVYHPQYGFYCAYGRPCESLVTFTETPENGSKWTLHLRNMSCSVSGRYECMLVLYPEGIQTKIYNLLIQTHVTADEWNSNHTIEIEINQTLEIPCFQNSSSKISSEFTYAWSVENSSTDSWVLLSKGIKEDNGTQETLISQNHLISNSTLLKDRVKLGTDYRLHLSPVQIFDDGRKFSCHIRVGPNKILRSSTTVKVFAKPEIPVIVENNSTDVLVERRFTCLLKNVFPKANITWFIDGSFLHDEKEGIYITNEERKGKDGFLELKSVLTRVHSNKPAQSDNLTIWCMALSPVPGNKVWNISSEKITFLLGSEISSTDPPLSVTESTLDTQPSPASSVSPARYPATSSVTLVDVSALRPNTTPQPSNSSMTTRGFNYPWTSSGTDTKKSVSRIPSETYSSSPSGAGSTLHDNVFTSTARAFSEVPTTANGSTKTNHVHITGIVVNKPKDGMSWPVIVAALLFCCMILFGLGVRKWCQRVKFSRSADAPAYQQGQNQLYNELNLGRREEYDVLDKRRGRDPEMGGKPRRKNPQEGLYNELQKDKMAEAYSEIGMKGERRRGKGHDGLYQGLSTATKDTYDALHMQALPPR
Sequence of AA-SR-120 (SR-120), Fas ECD-CD28 TM-CD3z ICD (chain, as listed by the source limits assumed, form in doubt): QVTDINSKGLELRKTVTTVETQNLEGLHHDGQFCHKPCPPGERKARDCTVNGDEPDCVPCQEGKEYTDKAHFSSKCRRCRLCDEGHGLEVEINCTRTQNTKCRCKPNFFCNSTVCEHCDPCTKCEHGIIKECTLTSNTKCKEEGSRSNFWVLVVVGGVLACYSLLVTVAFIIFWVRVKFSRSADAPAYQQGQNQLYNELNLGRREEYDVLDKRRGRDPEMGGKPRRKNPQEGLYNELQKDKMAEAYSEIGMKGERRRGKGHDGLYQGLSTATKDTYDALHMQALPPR
Sequence of FasL recombinant protein (P48023 134-281 limits assumed): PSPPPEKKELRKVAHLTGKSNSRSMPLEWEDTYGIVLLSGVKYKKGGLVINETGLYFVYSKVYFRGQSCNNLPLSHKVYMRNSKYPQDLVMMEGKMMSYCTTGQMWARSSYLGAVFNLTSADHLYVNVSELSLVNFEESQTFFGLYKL
Sequence of AA-SR-105 (SR-105), Fas ECD-Fas TM-CD3z ICD (chain, as listed by the source limits assumed, form in doubt): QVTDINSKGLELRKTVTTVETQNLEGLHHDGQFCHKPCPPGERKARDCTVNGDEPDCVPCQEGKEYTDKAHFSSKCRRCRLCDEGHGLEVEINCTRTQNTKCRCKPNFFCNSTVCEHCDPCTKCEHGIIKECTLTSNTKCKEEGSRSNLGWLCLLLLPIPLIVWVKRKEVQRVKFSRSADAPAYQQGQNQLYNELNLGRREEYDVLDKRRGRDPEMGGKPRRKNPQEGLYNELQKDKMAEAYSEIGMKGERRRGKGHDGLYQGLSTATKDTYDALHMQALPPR
Sequence of AA-SR-115 (SR-115), BTLA ECD-CD28 TM-CD3z ICD (chain, as listed by the source limits assumed, form in doubt): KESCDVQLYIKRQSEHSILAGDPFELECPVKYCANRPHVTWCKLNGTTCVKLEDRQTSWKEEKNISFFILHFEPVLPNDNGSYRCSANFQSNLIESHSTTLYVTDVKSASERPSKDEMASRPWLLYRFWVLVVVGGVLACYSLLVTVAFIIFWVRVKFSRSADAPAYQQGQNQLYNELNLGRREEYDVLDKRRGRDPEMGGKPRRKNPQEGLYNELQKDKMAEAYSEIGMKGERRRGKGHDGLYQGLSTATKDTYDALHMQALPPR

- CD69, fold-change of MFI over no stimulation, High (10 ug/mL) [3]: 125 fold
- CD69, fold-change of MFI over no stimulation, Low (0.4 ug/mL) [3]: 62.7 fold
- CD69, fold-change of MFI over no stimulation, Med. (2 ug/mL) [3]: 124 fold
- GFP, fold-change of MFI over no stimulation, High (10 ug/mL) [3]: 13 fold
- GFP, fold-change of MFI over no stimulation, Low (0.4 ug/mL) [3]: 6.1 fold
- GFP, fold-change of MFI over no stimulation, Med. (2 ug/mL) [3]: 7.5 fold
- CD69, fold-change of MFI over no stimulation, High (10 ug/mL) [4]: 9.2 fold
- CD69, fold-change of MFI over no stimulation, Low (0.4 ug/mL) [4]: 10.8 fold
- CD69, fold-change of MFI over no stimulation, Med. (2 ug/mL) [4]: 14.1 fold
- GFP, fold-change of MFI over no stimulation, High (10 ug/mL) [4]: 3.5 fold
- GFP, fold-change of MFI over no stimulation, Low (0.4 ug/mL) [4]: 5.1 fold
- GFP, fold-change of MFI over no stimulation, Med. (2 ug/mL) [4]: 6.9 fold
Substance: anti-BTLA mAb clone MIH26 (antibody)

- CD69, fold-change of MFI over no stimulation, High (10 ug/mL) [5]: 3.9 fold
- CD69, fold-change of MFI over no stimulation, Low (0.4 ug/mL) [5]: 3.3 fold
- CD69, fold-change of MFI over no stimulation, Med. (2 ug/mL) [5]: 1 fold
- GFP, fold-change of MFI over no stimulation, High (10 ug/mL) [5]: 1.2 fold
- GFP, fold-change of MFI over no stimulation, Low (0.4 ug/mL) [5]: 1 fold
- GFP, fold-change of MFI over no stimulation, Med. (2 ug/mL) [5]: 0.9 fold
- CD69, fold-change of MFI over no stimulation, High (10 ug/mL) [6]: 2 fold
- CD69, fold-change of MFI over no stimulation, Low (0.4 ug/mL) [6]: 1.1 fold
- CD69, fold-change of MFI over no stimulation, Med. (2 ug/mL) [6]: 1.1 fold
- GFP, fold-change of MFI over no stimulation, High (10 ug/mL) [6]: 1 fold
- GFP, fold-change of MFI over no stimulation, Low (0.4 ug/mL) [6]: 1 fold
- GFP, fold-change of MFI over no stimulation, Med. (2 ug/mL) [6]: 0.8 fold
Substance: anti-CD96 mAb clone NK92.39 (antibody)

Further lines, the substance ahead of its results:

Substance: FasL recombinant protein (from UniProt P48023 134-281) (ligand)
- CD69, fold-change of MFI over no stimulation, High (10 ug/mL) [1]: 70.2 fold
- CD69, fold-change of MFI over no stimulation, Low (0.4 ug/mL) [1]: 8.4 fold
- CD69, fold-change of MFI over no stimulation, Med. (2 ug/mL) [1]: 35.7 fold
- GFP, fold-change of MFI over no stimulation, High (10 ug/mL) [1]: 7.3 fold
- GFP, fold-change of MFI over no stimulation, Low (0.4 ug/mL) [1]: 1 fold
- GFP, fold-change of MFI over no stimulation, Med. (2 ug/mL) [1]: 4.6 fold
- CD69, fold-change of MFI over no stimulation, High (10 ug/mL) [2]: 162 fold
- CD69, fold-change of MFI over no stimulation, Low (0.4 ug/mL) [2]: 40.5 fold
- CD69, fold-change of MFI over no stimulation, Med. (2 ug/mL) [2]: 129 fold
- GFP, fold-change of MFI over no stimulation, High (10 ug/mL) [2]: 10.1 fold
- GFP, fold-change of MFI over no stimulation, Low (0.4 ug/mL) [2]: 2.4 fold
- GFP, fold-change of MFI over no stimulation, Med. (2 ug/mL) [2]: 11.2 fold

Substance: anti-CD200R mAb clone OX-108 (antibody)
- CD69, fold-change of MFI over no stimulation, High (10 ug/mL) [7]: 8.7 fold
- CD69, fold-change of MFI over no stimulation, Low (0.4 ug/mL) [7]: 0.9 fold
- CD69, fold-change of MFI over no stimulation, Med. (2 ug/mL) [7]: 1.1 fold
- GFP, fold-change of MFI over no stimulation, High (10 ug/mL) [7]: 5.9 fold
- GFP, fold-change of MFI over no stimulation, Low (0.4 ug/mL) [7]: 1.1 fold
- GFP, fold-change of MFI over no stimulation, Med. (2 ug/mL) [7]: 0.9 fold
- CD69, fold-change of MFI over no stimulation, High (10 ug/mL) [8]: 29.2 fold
- CD69, fold-change of MFI over no stimulation, Low (0.4 ug/mL) [8]: 1.3 fold
- CD69, fold-change of MFI over no stimulation, Med. (2 ug/mL) [8]: 4.9 fold
- GFP, fold-change of MFI over no stimulation, High (10 ug/mL) [8]: 6.8 fold
- GFP, fold-change of MFI over no stimulation, Low (0.4 ug/mL) [8]: 0.8 fold
- GFP, fold-change of MFI over no stimulation, Med. (2 ug/mL) [8]: 1.4 fold

Substance: anti-CTLA-4 mAb clone 1003705 (antibody)
- CD69, fold-change of MFI over no stimulation, High (10 ug/mL) [9]: 7.2 fold
- CD69, fold-change of MFI over no stimulation, Low (0.4 ug/mL) [9]: 3.1 fold
- CD69, fold-change of MFI over no stimulation, Med. (2 ug/mL) [9]: 5.6 fold
- GFP, fold-change of MFI over no stimulation, High (10 ug/mL) [9]: 4.3 fold
- GFP, fold-change of MFI over no stimulation, Low (0.4 ug/mL) [9]: 2.2 fold
- GFP, fold-change of MFI over no stimulation, Med. (2 ug/mL) [9]: 3.8 fold
- CD69, fold-change of MFI over no stimulation, High (10 ug/mL) [10]: 6.2 fold
- CD69, fold-change of MFI over no stimulation, Low (0.4 ug/mL) [10]: 2.7 fold
- CD69, fold-change of MFI over no stimulation, Med. (2 ug/mL) [10]: 4.5 fold
- GFP, fold-change of MFI over no stimulation, High (10 ug/mL) [10]: 5.9 fold
- GFP, fold-change of MFI over no stimulation, Low (0.4 ug/mL) [10]: 2.6 fold
- GFP, fold-change of MFI over no stimulation, Med. (2 ug/mL) [10]: 4.6 fold
